This series concerns the molecule itself. Kind of series: SEC; ETR1 in DMPC/MSP1E3D1 nanodiscs; Superose 6 Increase 10/300 GL, 50 mM Tris-HCl pH 8.0, 200 mM NaCl, 0.3 mL/min; column calibrated with protein standards; elution volume 16.77 mL, ~450 kDa. (In general: Size exclusion chromatography separates by hydrodynamic size, large species first.)

B1: ethylene receptor 1 (ETR1) from Arabidopsis thaliana, full-length, with N-terminal 10xHis-tag (receptor, UniProt P49333 1-738, looked up)
chain: MEVCNCIEPQWPADELLMKYQYISDFFIAIAYFSIPLELIYFVKKSAVFPYRWVLVQFGAFIVLCGATHLINLWTFTTHSRTVALVMTTAKVLTAVVSCATALMLVHIIPDLLSVKTRELFLKNKAAELDREMGLIRTQEETGRHVRMLTHEIRSTLDRHTILKTTLVELGRTLALEECALWMPTRTGLELQLSYTLRHQHPVEYTVPIQLPVINQVFGTSRAVKISPNSPVARLRPVSGKYMLGEVVAVRVPLLHLSNFQINDWPELSTKRYALMVLMLPSDSARQWHVHELELVEVVADQVAVALSHAAILEESMRARDLLMEQNVALDLARREAETAIRARNDFLAVMNHEMRTPMHAIIALSSLLQETELTPEQRLMVETILKSSNLLATLMNDVLDLSRLEDGSLQLELGTFNLHTLFREVLNLIKPIAVVKKLPITLNLAPDLPEFVVGDEKRLMQIILNIVGNAVKFSKQGSISVTALVTKSDTRAADFFVVPTGSHFYLRVKVKDSGAGINPQDIPKIFTKFAQTQSLATRSSGGSGLGLAISKRFVNLMEGNIWIESDGLGKGCTAIFDVKLGISERSNESKQSGIPKVPAIPRHSNFTGLKVLVMDENGVSRMVTKGLLVHLGCEVTTVSSNEECLRVVSHEHKVVFMDVCMPGVENYQIALRIHEKFTKQRHQRPLLVALSGNTDKSTKEKCMSFGLDGVLLKPVSLDNIRDVLSDLLEPRVLYEGM
notes: Ethylene receptor 1 (ETR1), Arabidopsis thaliana, full length, 738 residues, 82.5 kDa per monomer; Membrane protein, measured embedded in DMPC nanodiscs held by the scaffold protein MSP1E3D1 (His-tag cleaved by TEV); No cleavage of the ETR1 His-tag is described; the loaded nanodiscs were eluted from Ni-INDIGO beads by it just before SEC; also called ETR1_10xHis; ethylene receptor ETR1; source: E. …
Turning to B1, the stoichiometry N – broadly, the number of molecules, sites or subunits per partner or assembly – was found to be 2.

The values are drawn from article PMC12643061, “Structural dynamics of the plant hormone receptor ETR1 in a native‐like membrane environment” (Febs Letters, 2025).
